This assay addresses FGF receptor/BKL complex on HEK293 cells overexpressing human beta-klotho (BKL) (human) (UniProt Q86Z14). Briefly: cell-based or functional assay.
Sequence of FGF receptor/BKL complex on HEK293 cells overexpressing human beta-klotho (BKL) (human) (Q86Z14 whole entry, one chain of several): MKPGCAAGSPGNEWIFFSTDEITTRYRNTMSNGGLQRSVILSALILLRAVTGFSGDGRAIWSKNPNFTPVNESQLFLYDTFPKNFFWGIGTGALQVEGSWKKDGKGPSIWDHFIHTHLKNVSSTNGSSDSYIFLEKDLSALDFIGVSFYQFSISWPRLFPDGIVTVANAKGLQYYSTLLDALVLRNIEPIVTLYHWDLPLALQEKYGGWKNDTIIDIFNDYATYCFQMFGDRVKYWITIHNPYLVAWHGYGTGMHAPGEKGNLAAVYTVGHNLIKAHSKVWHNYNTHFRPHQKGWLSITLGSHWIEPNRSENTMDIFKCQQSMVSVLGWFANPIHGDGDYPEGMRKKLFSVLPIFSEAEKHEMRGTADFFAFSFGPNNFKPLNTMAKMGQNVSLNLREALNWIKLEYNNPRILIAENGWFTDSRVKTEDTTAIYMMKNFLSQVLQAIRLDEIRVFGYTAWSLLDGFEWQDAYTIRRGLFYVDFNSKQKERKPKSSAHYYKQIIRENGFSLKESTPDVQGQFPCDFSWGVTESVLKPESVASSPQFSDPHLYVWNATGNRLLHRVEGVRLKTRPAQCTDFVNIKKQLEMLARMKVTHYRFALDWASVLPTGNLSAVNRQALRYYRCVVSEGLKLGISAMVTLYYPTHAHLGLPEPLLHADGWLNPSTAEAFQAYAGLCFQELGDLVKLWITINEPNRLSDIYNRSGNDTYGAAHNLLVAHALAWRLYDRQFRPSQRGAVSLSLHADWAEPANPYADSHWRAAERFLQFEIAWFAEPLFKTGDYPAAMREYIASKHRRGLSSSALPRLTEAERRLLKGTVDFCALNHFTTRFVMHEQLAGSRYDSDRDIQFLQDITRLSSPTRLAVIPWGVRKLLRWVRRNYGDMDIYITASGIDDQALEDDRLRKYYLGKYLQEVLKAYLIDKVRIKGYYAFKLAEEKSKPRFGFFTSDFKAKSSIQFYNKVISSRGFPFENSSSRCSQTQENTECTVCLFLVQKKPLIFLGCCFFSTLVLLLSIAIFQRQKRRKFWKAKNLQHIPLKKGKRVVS
Sequence of 4-[10-[[(1S)-4-[2-[2-[2-[2-[2-[2-[[(1S)-5-acetamido-1-carboxy-pentyl]amino]-2-oxo-ethoxy]ethoxy]ethylamino]-2-oxo-ethoxy]ethoxy]ethylamino]-1-carboxy-4-oxo-butyl]amino]-10-oxo-decoxy]benzoic acid]-Ala (Q9NSA1 other isoform, or with tags, fused parts or gaps limits assumed): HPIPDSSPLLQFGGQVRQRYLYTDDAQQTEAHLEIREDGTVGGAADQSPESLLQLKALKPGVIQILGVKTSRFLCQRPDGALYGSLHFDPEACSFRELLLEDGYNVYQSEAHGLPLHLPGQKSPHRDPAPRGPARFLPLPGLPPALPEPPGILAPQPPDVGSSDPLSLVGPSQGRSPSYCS
Sequence of Ala[Gln121,Leu168,Cys174]FGF21 (Q9NSA1 other isoform, or with tags, fused parts or gaps limits assumed): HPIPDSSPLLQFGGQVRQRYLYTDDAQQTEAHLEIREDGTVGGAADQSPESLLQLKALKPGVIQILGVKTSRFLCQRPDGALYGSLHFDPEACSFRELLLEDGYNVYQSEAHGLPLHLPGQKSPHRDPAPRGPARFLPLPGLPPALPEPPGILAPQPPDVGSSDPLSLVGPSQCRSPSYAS
Sequence of Ala[Gln121,Leu168,Cys175]FGF21 (Q9NSA1 other isoform, or with tags, fused parts or gaps limits assumed): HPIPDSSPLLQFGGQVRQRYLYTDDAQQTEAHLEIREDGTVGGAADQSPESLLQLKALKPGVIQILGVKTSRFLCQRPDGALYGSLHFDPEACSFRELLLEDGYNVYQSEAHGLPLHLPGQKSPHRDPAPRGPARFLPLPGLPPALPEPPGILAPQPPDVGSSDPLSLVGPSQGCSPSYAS
Sequence of Ala[Gln121,Leu168,Cys169]FGF21 (Q9NSA1 other isoform, or with tags, fused parts or gaps limits assumed): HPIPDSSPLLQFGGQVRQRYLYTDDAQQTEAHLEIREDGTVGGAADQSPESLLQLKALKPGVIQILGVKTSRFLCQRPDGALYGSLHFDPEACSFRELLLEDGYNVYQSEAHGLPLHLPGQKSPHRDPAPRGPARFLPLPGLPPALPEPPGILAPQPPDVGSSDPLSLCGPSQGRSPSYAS
Sequence of Ala[Gln121,Leu168,Cys172]FGF21 (Q9NSA1 other isoform, or with tags, fused parts or gaps limits assumed): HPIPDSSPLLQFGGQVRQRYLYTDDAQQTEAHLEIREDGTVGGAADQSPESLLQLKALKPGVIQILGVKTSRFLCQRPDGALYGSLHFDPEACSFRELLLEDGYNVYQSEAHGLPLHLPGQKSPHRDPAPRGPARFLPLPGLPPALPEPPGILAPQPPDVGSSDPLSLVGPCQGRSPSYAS
Sequence of Ala[Gln121,Leu168,Cys173]FGF21 (Q9NSA1 other isoform, or with tags, fused parts or gaps limits assumed): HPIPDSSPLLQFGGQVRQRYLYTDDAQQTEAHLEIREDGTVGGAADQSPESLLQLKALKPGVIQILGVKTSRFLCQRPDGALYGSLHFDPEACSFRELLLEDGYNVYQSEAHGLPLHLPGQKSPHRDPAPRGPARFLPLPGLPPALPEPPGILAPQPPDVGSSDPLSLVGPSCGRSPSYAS
Sequence of Ala[Gln121,Leu168,Cys177]FGF21 (Q9NSA1 other isoform, or with tags, fused parts or gaps limits assumed): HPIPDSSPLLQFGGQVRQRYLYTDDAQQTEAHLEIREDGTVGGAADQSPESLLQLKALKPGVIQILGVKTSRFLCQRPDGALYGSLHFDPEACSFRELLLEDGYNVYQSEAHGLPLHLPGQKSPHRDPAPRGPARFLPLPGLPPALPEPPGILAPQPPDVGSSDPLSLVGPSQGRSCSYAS
Sequence of Ala[Gln121,Leu168,Cys170]FGF21 (Q9NSA1 other isoform, or with tags, fused parts or gaps limits assumed): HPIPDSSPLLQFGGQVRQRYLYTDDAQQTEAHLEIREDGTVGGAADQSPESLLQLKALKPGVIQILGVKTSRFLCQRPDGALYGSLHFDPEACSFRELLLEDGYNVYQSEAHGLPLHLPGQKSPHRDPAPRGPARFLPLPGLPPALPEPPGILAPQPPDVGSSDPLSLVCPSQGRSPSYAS
The substance “4-[10-[[4-[2-[2-[2-[2-[2-[2-[[(1S)-5-acetamido-1-carboxy-pentyl]amino]-2-oxo-ethoxy]ethoxy]ethylamino]-2-oxo-ethoxy]ethoxy]ethylamino]-4-oxo-butyl]sulfonylamino]-10-oxo-decoxy]benzoic acid-Ala[Gln121,Leu168,Cys181]FGF21 (from UniProt Q9NSA1 29-208) (ligand)” came in with an EC50 (0.1% HSA) (nM), pERK, HEK293/BKL cells of 132 nM and an EC50 (nM), pERK, HEK293/BKL cells of 24.7 nM. Taken in the same sequence, the figures for “4-[10-[[4-[2-[2-[2-[2-[2-[2-[[(1S)-5-acetamido-1-carboxy-pentyl]amino]-2-oxo-ethoxy]ethoxy]ethylamino]-2-oxo-ethoxy]ethoxy]ethylamino]-4-oxo-butyl]sulfonylamino]-10-oxo-decoxy]benzoic acid]-Ala[Gln121,Leu168,Cys180]FGF21 (from UniProt Q9NSA1 29-209) (ligand)” were 4 nM and 3.2 nM. Taken in the same sequence, the figures for “4-[10-[[(1S)-4-[2-[2-[2-[2-[2-[2-[[(1S)-5-acetamido-1-carboxy-pentyl]amino]-2-oxo-ethoxy]ethoxy]ethylamino]-2-oxo-ethoxy]ethoxy]ethylamino]-1-carboxy-4-oxo-butyl]amino]-10-oxo-decoxy]benzoic acid]-Ala[Gln121,Leu168,Cys180]FGF21 (from UniProt Q9NSA1 29-209) (ligand)” were 3 nM and 5 nM. The corresponding values for “4-[10-[[(1S)-4-[2-[2-[2-[2-[2-[2-[[(1S)-5-acetamido-1-carboxy-pentyl]amino]-2-oxo-ethoxy]ethoxy]ethylamino]-2-oxo-ethoxy]ethoxy]ethylamino]-1-carboxy-4-oxo-butyl]amino]-10-oxo-decoxy]benzoic acid]-Ala[Gln121,Leu168,Cys181]FGF21 (from UniProt Q9NSA1 29-208) (ligand)” are 138 nM and 26.4 nM.

Take “12-[[4-[[(1S)-4-[2-[2-[2-[2-[2-[2-(2-acetamidoethylamino)-2-oxo-ethoxy]ethoxy]ethylamino]-2-oxo-ethoxy]ethoxy]ethylamino]-1-carboxy-4-oxo-butyl]carbamoyl]cyclohexyl]methylamino]-12-oxo-dodecanoic acid-Ala[Gln121,Leu168,Cys180]FGF21 (from UniProt Q9NSA1 29-209) (ligand)”: the EC50 (0.1% HSA) (nM), pERK, HEK293/BKL cells came out at 4.7 nM and the EC50 (nM), pERK, HEK293/BKL cells stood at 4 nM. The corresponding values for “12-[[(1S)-4-[2-[2-[2-[2-[2-[2-[[(1S)-5-acetamido-1-carboxy-pentyl]amino]-2-oxo-ethoxy]ethoxy]ethylamino]-2-oxo-ethoxy]ethoxy]ethylamino]-1-carboxy-4-oxo-butyl]amino]-12-oxo-dodecanoic acid-Ala[Gln121,Leu168,Cys180]FGF21 (from UniProt Q9NSA1 29-209) (ligand)” are 3.4 nM and 8.4 nM. The corresponding values for “12-[[(1S)-4-[[(1S)-4-[2-[2-[2-[2-[2-[2-[[(1S)-5-acetamido-1-carboxy-pentyl]amino]-2-oxo-ethoxy]ethoxy]ethylamino]-2-oxo-ethoxy]ethoxy]ethylamino]-1-carboxy-4-oxo-butyl]amino]-1-carboxy-4-oxo-butyl]amino]-12-oxo-dodecanoic acid-Ala[Gln121,Leu168,Cys180]FGF21 (from UniProt Q9NSA1 29-209) (ligand)” are 6.1 nM and 7.9 nM. In turn, “16-[[4-[[(1S)-4-[2-[2-[2-[2-[2-[2-(2-acetamidoethylamino)-2-oxo-ethoxy]ethoxy]ethylamino]-2-oxo-ethoxy]ethoxy]ethylamino]-1-carboxy-4-oxo-butyl]carbamoyl]cyclohexyl]methylamino]-16-oxo-hexadecanoic acid-Ala[Gln121,Leu168,Cys180]FGF21 (from UniProt Q9NSA1 29-209) (ligand)” showed an EC50 (0.1% HSA) (nM), pERK, HEK293/BKL cells of 3.2 nM and an EC50 (nM), pERK, HEK293/BKL cells of 3.5 nM.

On to “16-[[4-[[(1S)-4-[2-[2-[2-[2-[2-[2-[[(1S)-5-[(2-acetamido]-1-carboxy-pentyl]amino]-2-oxo-ethoxy]ethoxy]ethylamino]-2-oxo-ethoxy]ethoxy]ethylamino]-1-carboxy-4-oxo-butyl]carbamoyl]cyclohexyl]methylamino]-16-oxo-hexadecanoic acid-Ala[Gln121,Leu168,Cys180]FGF21 (from UniProt Q9NSA1 29-209) (ligand)”, for which the EC50 (0.1% HSA) (nM), pERK, HEK293/BKL cells amounted to 2.1 nM and the EC50 (nM), pERK, HEK293/BKL cells worked out at 4 nM. Taken in the same sequence, the figures for “16-[[(1S)-4-[2-[2-[2-[2-[2-[2-(2-acetamidoethylamino)-2-oxo-ethoxy]ethoxy]ethylamino]-2-oxo-ethoxy]ethoxy]ethylamino]-1-carboxy-4-oxo-butyl]amino]-16-oxo-hexadecanoic acid-Ala[Gln121,Leu168,Cys174]FGF21 (from UniProt Q9NSA1 29-209) (ligand)” were 4 nM and 2 nM. The corresponding values for “18-[[4-[[(1S)-4-[2-[2-[2-[2-[2-[2-[[(1S)-5-[(2-acetamido]-1-carboxy-pentyl]amino]-2-oxo-ethoxy]ethoxy]ethylamino]-2-oxo-ethoxy]ethoxy]ethylamino]-1-carboxy-4-oxo-butyl]carbamoyl]cyclohexyl]methylamino]-18-oxo-octadecanoic acid-Ala[Gln121,Leu168,Cys180]FGF21 (from UniProt Q9NSA1 29-209) (ligand)” are 14 nM and 4 nM.

As for “18-[[(1S)-4-[2-[2-[2-[2-[2-[2-(2-acetamidoethylamino)-2-oxo-ethoxy]ethoxy]ethylamino]-2-oxo-ethoxy]ethoxy]ethylamino]-1-carboxy-4-oxo-butyl]amino]-18-oxo-octadecanoic acid-Ala[Gln121,Leu168,Cys170]FGF21 (from UniProt Q9NSA1 29-209) (ligand)”, the EC50 (0.1% HSA) (nM), pERK, HEK293/BKL cells was 20 nM and the EC50 (nM), pERK, HEK293/BKL cells was found to be 1 nM.

Turning to “18-[[(1S)-4-[2-[2-[2-[2-[2-[2-(2-acetamidoethylamino)-2-oxo-ethoxy]ethoxy]ethylamino]-2-oxo-ethoxy]ethoxy]ethylamino]-1-carboxy-4-oxo-butyl]amino]-18-oxo-octadecanoic acid-Ala[Gln121,Leu168,Cys174]FGF21 (from UniProt Q9NSA1 29-209) (ligand)”, the EC50 (0.1% HSA) (nM), pERK, HEK293/BKL cells was 1 nM and the EC50 (nM), pERK, HEK293/BKL cells is 1 nM. In turn, “20-[[4-[[(1S)-4-[2-[2-[2-[2-[2-[2-[[(1S)-5-[(2-acetamido]-1-carboxy-pentyl]amino]-2-oxo-ethoxy]ethoxy]ethylamino]-2-oxo-ethoxy]ethoxy]ethylamino]-1-carboxy-4-oxo-butyl]carbamoyl]cyclohexyl]methylamino]-20-oxo-icosanoic acid-Ala[Gln121,Leu168,Cys180]FGF21 (from UniProt Q9NSA1 29-209) (ligand)” displayed an EC50 (0.1% HSA) (nM), pERK, HEK293/BKL cells of 35.5 nM and an EC50 (nM), pERK, HEK293/BKL cells of 4 nM.

For “20-[[(1S)-4-[2-[2-[2-[2-[2-[2-[[(1S)-5-acetamido-1-carboxy-pentyl]amino]-2-oxo-ethoxy]ethoxy]ethylamino]-2-oxo-ethoxy]ethoxy]ethylamino]-1-carboxy-4-oxo-butyl]amino]-20-oxo-icosanoic acid-Ala[Gln121,Leu168,Cys180]FGF21 (from UniProt Q9NSA1 29-209) (ligand)”, the EC50 (0.1% HSA) (nM), pERK, HEK293/BKL cells amounted to 52.5 nM and the EC50 (nM), pERK, HEK293/BKL cells came to 6.1 nM. Taken in the same sequence, the figures for “20-[[(1S)-4-[[(1S)-4-[2-[2-[2-[2-[2-[2-[[(1S)-5-acetamido-1-carboxy-pentyl]amino]-2-oxo-ethoxy]ethoxy]ethylamino]-2-oxo-ethoxy]ethoxy]ethylamino]-1-carboxy-4-oxo-butyl]amino]-1-carboxy-4-oxo-butyl]amino]-20-oxo-icosanoic acid-Ala[Gln121,Leu168,Cys180]FGF21 (from UniProt Q9NSA1 29-209) (ligand)” were 65.5 nM and 10.3 nM.

For “(2S)-6-acetamido-2-[[2-[2-[2-[[2-[2-[2-[[(4S)-4-carboxy-4-(16-sulfohexadecanoylamino)butanoyl]amino]ethoxy]ethoxy]acetyl]amino]ethoxy]ethoxy]acetyl]amino]hexadecanoic acid-Ala[Gln121,Leu168,Cys180]FGF21 (from UniProt Q9NSA1 29-209) (ligand)”, the EC50 (0.1% HSA) (nM), pERK, HEK293/BKL cells amounted to 7.1 nM and the EC50 (nM), pERK, HEK293/BKL cells turned out to be 4.2 nM. Take “Ala[Gln121,Cys167,Leu168,]FGF21 (from UniProt Q9NSA1 29-209) (ligand)”: the EC50 (nM), pERK, HEK293/BKL cells is 4 nM. For the substance “Ala[Gln121,Cys168]FGF21 (from UniProt Q9NSA1 29-209) (ligand)”, the EC50 (nM), pERK, HEK293/BKL cells is 492 nM. Same read-out and setting: with “Ala[Gln121,Leu168,Cys169]FGF21 (from UniProt Q9NSA1 29-209) (ligand)” the figure was 22 nM; with “Ala[Gln121,Leu168,Cys170]FGF21 (from UniProt Q9NSA1 29-209) (ligand)”, 7 nM; with “Ala[Gln121,Leu168,Cys172]FGF21 (from UniProt Q9NSA1 29-209) (ligand)”, 5 nM. Same read-out and setting: with “Ala[Gln121,Leu168,Cys173]FGF21 (from UniProt Q9NSA1 29-209) (ligand)” the figure was 4 nM.

As to “Ala[Gln121,Leu168,Cys174]FGF21 (from UniProt Q9NSA1 29-209) (ligand)”, the EC50 (nM), pERK, HEK293/BKL cells was determined as 5 nM. Same read-out and setting: the same measure for “Ala[Gln121,Leu168,Cys175]FGF21 (from UniProt Q9NSA1 29-209) (ligand)”: 11 nM; for “Ala[Gln121,Leu168,Cys177]FGF21 (from UniProt Q9NSA1 29-209) (ligand)”: 416 nM.
